We go through 1 substance from patent US20150218551A1.

For the test, the target named is LR1-C1 envelope protein (Env variant of HIV-1 AC10) on virions (HIV-1). The test can be described thus: virion capture assay: virions titrated on plates coated with 4E10, bound virus measured by p24 ELISA; reference AC10 wild-type virions. (An ELISA detects its analyte on a solid surface through an enzyme-linked reagent.)

As to 4E10 antibody, the fold increase in affinity against the AC10 wild-type variant came out at 4 fold.
